For orientation: IC50 means the concentration at which inhibition is half-maximal. A lower IC50 goes with inhibition by little substance.

This note sets out measurements from US20170226155A1.

Bounds are passed on as bounds.

The target in one experiment is DP IV. Kind of experiment: enzyme inhibition (A410); pH 2, 10 minutes.
In the case of ChgAib-EthylGly-boroPro, the half-inhibitory concentration (IC50) came out at 13 µM.

A further experiment concerns the target DPP IV. The experiment in a line: enzyme inhibition (A410); pH 2, 10 minutes.
ChgAla-tBugboroPro came in with an IC50 above 22 µM.

The next experiment concerns the target -. Kind of experiment: enzyme inhibition (A410); pH 8.
With Propyl Gly-boro-Pro, the IC50 stood at 2.8 µM.
The same measure, in the same setting: with tert-Butyl Gly-boro-Pro the figure was 0.3 µM.

For another experiment, the target named is -. Kind of experiment: enzyme inhibition (fluorescence); pH 7.6, +DPIV.
Regarding AspProGlyboroLeu, the IC50 was 0.093 µM.

Another experiment deals with -. Kind of experiment: enzyme inhibition (fluorescence); pH 2, +DPIV.
AspProGlyboroLeu: the IC50 came to 0.108 µM.

The target of another experiment is -. The experiment in a line: enzyme inhibition (fluorescence); pH 2, -DPIV.
AspProGlyboroLeu yielded an IC50 of 0.232 µM.

The next experiment deals with DP IV. Kind of experiment: enzyme inhibition (A410); pH 2, 30 minutes.
ChgAib-EthylGly-boroPro: the IC50 came out at 2.1 µM.

In the next experiment the target is DPP IV. The experiment in a line: enzyme inhibition (A410); pH 2, 30 minutes.
Consider ChgAla-tBugboroPro, for which the IC50 was above 22 µM.

In a further experiment the target is DP IV. The experiment in a line: enzyme inhibition (A410); pH 8, 30 minutes.
With ChgAib-EthylGly-boroPro, the IC50 is 3.2 µM.

The target of the next experiment is DPP IV. The experiment in a line: enzyme inhibition (A410); pH 8, 30 minutes.
ChgAla-tBugboroPro: the IC50 is above 22 µM.

The next experiment has as its target DPP IV. Kind of experiment: enzyme inhibition (A410); pH 8, 10 minutes.
As to ChgAla-tBugboroPro, the IC50 is above 22 µM.

The next experiment concerns the target -. The experiment in a line: enzyme inhibition (fluorescence); pH 7.6, -DPIV.
With AspProGlyboroLeu, the IC50 was determined as 0.234 µM.

In the next experiment the target is Dipeptidyl amino peptidase type IV (DPP IV). The experiment in a line: cell-based or functional assay.
AibAlaValboroPro (peptide) came in with an IC50 at ten minutes, pH 2 of 2 µM.
As to ChgAlaEtgboroAla (peptide), the IC50 at ten minutes, pH 2 was determined as 1.3 µM and the IC50 at ten minutes, pH 8 worked out at 2.5 µM.
The like results for ChgAlaEtgboroPro (peptide) were, in that order, 600 nM and 802 nM.
On to ChgAlaProboroPro (peptide), for which the IC50, pH 2 (Tetrapeptide Prodrugs) came out at 2 mM; the IC50, pH 8 (Tetrapeptide Prodrugs) worked out at 30 mM; the IC50 at ten minutes, pH 2 came out at 2 µM; the IC50 at ten minutes, pH 8 came out at 30 µM.
The like results for ChgAlaValboroPro (peptide) were, in that order, 190 nM, 360 nM, 190 nM and 360 nM.
As for ChgAzeEtgboroPro (peptide), the IC50 at ten minutes, pH 2 came out at 15 nM and the IC50 at ten minutes, pH 8 was found to be 16 nM.
In turn, ChgDhpEtgboroPro (peptide) showed an IC50 at ten minutes, pH 2 of 15 nM and an IC50 at ten minutes, pH 8 of 17 nM.
The matching figures for ChgHypEtgboroPro (peptide): 17 nM and 25 nM.
The matching figures for ChgPipEtgboroPro (peptide): 19 nM and 14 nM.
For the substance ChgProChgboroAla (peptide), the IC50, pH 2 (Tetrapeptide Prodrugs) stood at 180 nM; the IC50, pH 8 (Tetrapeptide Prodrugs) was found to be 170 nM; the IC50 at ten minutes, pH 2 is 180 nM; the IC50 at ten minutes, pH 8 was 170 nM.
Take ChgProChgboroPro (peptide): the IC50 at ten minutes, pH 2 was found to be 14 nM and the IC50 at ten minutes, pH 8 was determined as 14 nM.
Consider ChgProEtgboroPro (peptide), for which the IC50 at ten minutes, pH 2 is 12 nM and the IC50 at ten minutes, pH 8 amounted to 14 nM.
The matching figures for ChgProtBugboroAla (peptide): 6.8 µM and 8.4 µM.
In turn, ChgProtBugboroPro (peptide) registered an IC50 at ten minutes, pH 2 of 1.5 µM and an IC50 at ten minutes, pH 8 of 8 µM.
ChgThz4EtgboroPro (peptide) gave an IC50 at ten minutes, pH 2 of 13 nM and an IC50 at ten minutes, pH 8 of 16 nM.
Regarding “Cyclohexylglycine-Proline-Ala-boroProline (peptide)”, the IC50, pH 2 (Tetrapeptide Prodrugs) came to 19 nM; the IC50, pH 8 (Tetrapeptide Prodrugs) was 15 nM; the IC50 at ten minutes, pH 2 worked out at 17 nM; the IC50 at ten minutes, pH 8 is 17 nM.
For the substance “Cyclohexylglycine-Proline-Valine-boroProline (peptide)”, the IC50, pH 2 (Tetrapeptide Prodrugs) was 65 nM; the IC50, pH 8 (Tetrapeptide Prodrugs) amounted to 72 nM; the IC50 at ten minutes, pH 2 worked out at 70 nM; the IC50 at ten minutes, pH 8 was 70 nM.
Turning to “N-Me-Gly-3,4 dehydroproline-ALA-PRO boronic acid (peptide)”, the IC50 at ten minutes, pH 2 was determined as 39 nM and the IC50 at ten minutes, pH 8 is 34 nM.
The substance tBugProAlaboroPro (peptide) came in with an IC50 at ten minutes, pH 2 of 14 nM and an IC50 at ten minutes, pH 8 of 18 nM.

The target of another experiment is -. Kind of experiment: enzyme inhibition (A410); pH 12.
Propyl Gly-boro-Pro: the IC50 came out at 0.2 µM.
tert-Butyl Gly-boro-Pro displayed an IC50 of 0.019 µM.

In a further experiment the target is -. The experiment in a line: enzyme inhibition (A410); pH 2.
Propyl Gly-boro-Pro yielded an IC50 of 0.0025 µM.
The same measure, in the same setting: with tert-Butyl Gly-boro-Pro the figure was 0.0034 µM.
